In publication PMC12016525, “The GCN4-Swi6B module mediates low nitrogen-induced cell wall remodeling in Ganoderma lucidum”:

B1: SWI6 promoter GBE probe (pSwi6-Biotin) (dsDNA)
DNA 1: GAAAGTACCAGGGCACCTGGTGAGTCTCAGTCTCGGTGCCATG
DNA 2: CATGGCACCGAGACTGAGACTCACCAGGTGCCCTGGTACTTTC
B2: m-SWI6 mutant probe (pSwi6-M-Biotin) (dsDNA)
DNA 1: GAAAGTACCAGGGATAAATTTATTATATAGTCTCGGTGCCATG
DNA 2: CATGGCACCGAGACTATATAATAAATTTATCCCTGGTACTTTC

Key:
[1] = biological target: T1, GCN4 (Ganoderma lucidum, UniProt A0A6H0YJ80 1-300); assay: SPR; conditions: SPR: 10 mM HEPES pH 7.4, 150 mM NaCl, 3 mM EDTA, 0.005% P20, 25 C, SA chip, GCN4 7.81-125 nM; EMSA: Thermo 89880 kit, conditions not stated; in M (unit assumed)
T1 sequence (A0A6H0YJ80 entry or part of it): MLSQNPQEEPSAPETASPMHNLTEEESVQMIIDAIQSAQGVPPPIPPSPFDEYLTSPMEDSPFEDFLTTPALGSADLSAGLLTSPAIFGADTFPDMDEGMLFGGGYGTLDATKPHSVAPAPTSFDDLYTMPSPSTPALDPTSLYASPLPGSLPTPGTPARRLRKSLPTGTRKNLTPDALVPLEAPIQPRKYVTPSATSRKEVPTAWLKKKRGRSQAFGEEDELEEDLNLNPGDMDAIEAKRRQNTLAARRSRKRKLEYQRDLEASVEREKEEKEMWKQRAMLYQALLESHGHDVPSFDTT

[2] = biological target: T1, GCN4; assay: EMSA; SPR: 10 mM HEPES pH 7.4, 150 mM NaCl, 3 mM EDTA, 0.005% P20, 25 C, SA chip, GCN4 7.81-125 nM; EMSA: Thermo 89880 kit, conditions not stated; conditions: protein: recombinant; tags: His; chain copies: 2; blunt

Molecule	Kd (M (unit not given)) [1]	binding result [2]
SWI6 (GBE) SPR probe	8.79e-08	
B1		binds
B2		no binding
